Data reported in patent EP4755393A1, “USE OF PROTON PUMP REGULATOR IN PREPARATION OF DRUG” (Shanghai Quietd Biotechnology Co., Ltd., priority 2023, dated 2025).
Ends that are not written are not given here.

Assays:
Male SD rats [1] = assay: Neurological function scoring after MCAO (Middle Cerebral Artery Occlusion); assay type: in vivo; conditions: 5 mpk, from 3 days prior to surgery once daily plus doses on day of surgery; 24 h after MCAO; vs Model + QD202 placebo; FIG. 16
Description: (§1) Experimental protocol: Male SD rats (260-280 g) were randomly assigned to the following groups: Sham + QD202 placebo group (n=6), Model + QD202 placebo group (n=6), positive control group (Edaravone-5 mpk, n=6), QD202-1 mpk group (n=6), QD202-3 mpk group (n=6), QD202-5 mpk group (n=6). The sham group served as the sham-operated group, while rats in the model group were subjected to Middle Cerebral Artery Occlusion (MCAO) for model establishment. For the edaravone-treated group, administration was initiated 3 days prior to surgery, once daily; on the day of surgery, a total of […] were given (30 min before surgery, 30 min after surgery, and 60 min after surgery). Rats in the QD202 groups received a single dose at 30 min after surgery. At 24 h postoperatively, neurological function was scored according to Table 3. Subsequently, the whole brain tissues of the rats were harvested for TTC staining to evaluate the infarct volume. […]

Male SD rats [2] = assay: TTC staining of infarct volume after MCAO; assay type: in vivo; conditions: 5 mpk, from 3 days prior to surgery once daily plus doses on day of surgery, 24 h after MCAO, vs Model + QD202 placebo, FIG. 17
Description: as §1

HT22 cells = assay: Quantitative detection of ROS (DCFH-DA) in the oxygen-glucose deprivation (OGD) cell model; assay type: cell-based; conditions: Mus musculus, HT-22, OGD 16 h, 24 h reoxygenation, OGD plus vehicle = 100%, mean ± standard deviation, read-out: inhibition rate of ROS
Protocol: Cell culture: Mouse hippocampal HT22 cells were cultured in DMEM and 10% serum at 37°C in a 5% CO2 incubator.
Oxygen-glucose deprivation (OGD) cell model: HT22 cells were seeded at a density of about 1 ×10^5 into 96-well plates and cultured for 24 h in a 37°C incubator with 5% CO2/95% air in DMEM and 10% serum. After placing HT22 cells in glucose-free medium, they were transferred to a sealed container containing a 5% CO2/95% N2 mixture and incubated at 37°C for 16 h. The glucose-free medium was then replaced with a normal medium containing glucose, and the mixture was incubated for 24 h in a 37°C incubator containing 5% CO2/95% air for reoxygenation.
Experimental grouping: Normally cultured HT22 cells were used as the control group. […] After 24 h of reoxygenation, quantitative detection of ROS was performed.
Quantitative detection of ROS: Reactive oxygen species were detected using the Beyotime reactive oxygen species detection kit and the fluorescent probe DCFH-DA. […] Observation was performed under a fluorescence microscope, followed by quantification of the average fluorescence intensity using Image J software.
Data analysis: Three parallel experiments were performed. The average fluorescence intensity of the OGD plus vehicle group was set as the standard value of 100% for normalization of the fluorescence intensity of cells in each group. […]

hATP6V1B2 = hATP6V1B2 (Homo sapiens, UniProt P21281); assay: Co-immunoprecipitation of Myc-tagged hATP6V1B2 with GFP-tagged QD202 and site mutants (HEK 293 lysates, western blot); assay type: binding; conditions: expressed from pEGFP-N3 plasmids in HEK 293, anti-GFP IP, FIG. 7A, 7B
Protocol: Expression plasmids of hATP6V1B2, QD202, site-mutated QD202(D15A), site-mutated QD202(V16A), site-mutated QD202(P13A), and site-mutated QD202(V14A) were constructed respectively. The hATP6V1B2 was co-transfected into HEK 293 cells with the expression plasmids of QD202, site-mutated QD202(D15A), site-mutated QD202(V16A), site-mutated QD202(P13A) and site-mutated QD202(V14A), respectively, and cellular proteins were extracted 48 h after transfection. Table 1: Plasmid sequences
Protein extraction was performed using Pierce RIPA lysis buffer. Taking cells in a 60 mm culture dish as an example, 500 µL of Pierce RIPA lysis buffer containing protease inhibitors was added. Cells were collected and transferred to a clean 1.5 mL EP tube using a cell scraper. After mixing for 1 h on a rotary mixer at 4°C, the cells were centrifuged at 13,000 rpm at 4°C for 10 min to remove cell debris. The hATP6V1B2 was equally divided into […], which were then mixed separately with the cell lysates transfected with QD202, site-mutated QD202(P13A), site-mutated QD202(V14A), site-mutated QD202(D15A), and site-mutated QD202(V16A), 30 µL of the supernatant was taken and mixed with 10 µL of 4× loading buffer, followed by boiling at 100°C for 5 min and storage at -20°C; 2 µL of the antibody (Anti-GFP, Roche, 11814460001) was added to the remaining 470 µL of the protein lysate, and the mixture was incubated overnight (about 16-18 h) on a rotary shaker at 4°C. 30 µL of Protein G Sepharose beads (Roche, 11243233001) were placed in an EP tube and washed three times with Pierce RIPA lysis buffer to eliminate interference from the original stock solution. The protein that had been incubated with the antibody overnight was added to the Sepharose beads, followed by mixing and incubation at 4°C for 2 h to ensure sufficient binding between the antibody and the protein. The mixture was centrifuged at 4000 rpm for 1 min. The supernatant was aspirated off, followed by the addition of 600 µL of Pierce RIPA lysis buffer. The tube was gently inverted, followed by centrifugation to collect the supernatant. The above steps were repeated three times to wash away non-specifically bound proteins. Finally, 30 µL of 1×loading buffer was added, the mixture was mixed well, heated at 60°C for 20 min to denature the protein, and then stored at -20°C. The protein was examined by western blot (Myc-Tag (9B11) Mouse mAb, CST, 2276S; Anti-GFP, Roche, 11814460001).
The hATP6V1B2 was co-transfected into the host cell line HEK 293 with the expression plasmids of QD202, site-mutated QD202(P13A), site-mutated QD202(V14A), site-mutated QD202(D15A) and site-mutated QD202(V16A), respectively. […] It is therefore hypothesized that valine at position 16 of QD202 is one of the key amino acids for the binding between hATP6V1B2 and QD202, whereas proline at position 13, valine at position 14 and aspartic acid at position 15 can be replaced with alanine, as illustrated in FIG. 7A and FIG. 7B.

Sequence of hATP6V1B2 (P21281 whole entry): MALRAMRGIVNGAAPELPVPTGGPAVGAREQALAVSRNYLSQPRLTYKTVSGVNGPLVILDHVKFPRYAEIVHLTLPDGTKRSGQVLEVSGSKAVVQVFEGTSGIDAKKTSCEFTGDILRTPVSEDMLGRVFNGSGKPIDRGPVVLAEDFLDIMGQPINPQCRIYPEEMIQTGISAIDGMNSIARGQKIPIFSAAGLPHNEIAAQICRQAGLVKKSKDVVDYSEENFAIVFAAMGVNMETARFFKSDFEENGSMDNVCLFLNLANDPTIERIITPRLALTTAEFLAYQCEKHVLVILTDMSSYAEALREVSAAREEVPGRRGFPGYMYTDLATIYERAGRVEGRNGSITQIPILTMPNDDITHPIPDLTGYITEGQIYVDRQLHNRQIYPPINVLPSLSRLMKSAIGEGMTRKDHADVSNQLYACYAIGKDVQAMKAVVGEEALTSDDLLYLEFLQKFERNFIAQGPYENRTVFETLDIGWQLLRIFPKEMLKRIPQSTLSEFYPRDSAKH

CC1=NN(c2ccccc2)C(=O)C1 [Edaravone]
neurobehavioral score (Male SD rats [1]): significantly lower than that of the Model + QD202 placebo group with a statistically significant difference (p<0.01)
infarct volume (Male SD rats [2]): significantly lower than that of the Model + QD202 placebo group, with a statistically significant difference (p<0.01)
inhibition at 200 µM (HT22 cells): 63.8 ± 10.9%

QD202(D15A): QD202 in which aspartic acid at position 15 was substituted with alanine; expressed from pEGFP-N3 plasmid (YGRKKRRQRRRSPVAVVCS; left off: large carriers)
binding to Myc-tagged hATP6V1B2 (co-immunoprecipitation) (hATP6V1B2): also bind to

QD202(P13A): QD202 in which proline at position 13 was substituted with alanine; expressed from pEGFP-N3 plasmid (YGRKKRRQRRRSAVDVVCS; not fully specified)
binding to Myc-tagged hATP6V1B2 (co-immunoprecipitation) (hATP6V1B2): also bind to

QD202(V14A): QD202 in which valine at position 14 was substituted with alanine; expressed from pEGFP-N3 plasmid (YGRKKRRQRRRSPADVVCS; not fully specified)
binding to Myc-tagged hATP6V1B2 (co-immunoprecipitation) (hATP6V1B2): also bind to

QD202(V16A): QD202 in which valine at position 16 was substituted with alanine; expressed from pEGFP-N3 plasmid (YGRKKRRQRRRSPVDAVCS; not fully specified)
binding to Myc-tagged hATP6V1B2 (co-immunoprecipitation) (hATP6V1B2): significantly reduced
